Our source for the binding result and Kd values is PMC11861601, “Multitarget mechanism of MYC inhibition by the bacterial lon protease in disease” (Scientific Reports, 2025).

B1: His-tagged full-length N-MYC (natural protein, human, UniProt P04198 1-464, looked up)
chain: MPSCSTSTMPGMICKNPDLEFDSLQPCFYPDEDDFYFGGPDSTPPGEDIWKKFELLPTPPLSPSRGFAEHSSEPPSWVTEMLLENELWGSPAEEDAFGLGGLGGLTPNPVILQDCMWSGFSAREKLERAVSEKLQHGRGPPTAGSTAQSPGAGAASPAGRGHGGAAGAGRAGAALPAELAHPAAECVDPAVVFPFPVNKREPAPVPAAPASAPAAGPAVASGAGIAAPAGAPGVAPPRPGGRQTSGGDHKALSTSGEDTLSDSDDEDDEEEDEEEEIDVVTVEKRRSSSNTKAVTTFTITVRPKNAALGPGRAQSSELILKRCLPIHQQHNYAAPSPYVESEDAPPQKKIKSEASPRPLKSVIPPKAKSLSPRNSDSEDSERRRNHNILERQRRNDLRSSFLTLRDHVPELVKNEKAAKVVILKKATEYVHSLQAEEHQLLLEKEKLQARQQQLLKKIEHARTC
notes: N-MYC, human, full length; source: bought: Signalway (SAB Signalway Antibody), Cat# AP72694

Holding throughout (assay): SPR; Biacore X100; His-tagged ligand (~0.2 µM) captured on Ni-charged Sensor Chip NTA; Lon protein or domain injected at five dilutions; 25 °C, 30 µL/min; running buffer as printed 0.1 M HEPES, 1.5 M NaCl, 0.03 M EDTA, 0.5% v/v Surfactant P20; reference cell without nickel; 1:1 Langmuir fit
What all share (details): both partners purified

The target in test [1] is T1, recombinant Escherichia coli Lon protease (aa 1-778) (E. coli, UniProt P0A9M0 1-778).
T1 construct: Lon protease, E. coli, UniProt P0A9M0, aa 1-778 as printed; Gene synthesised (GenScript) and cloned in a pASK-63 A+ vector (IBA); also called rLon; full-length Lon; source: E. coli BL21 (DE3), purified (Strep-Tactin Sepharose)

Test [2] has as its target T2, His-tagged full-length c-MYC (human, UniProt P01106-1 1-439).
T2 construct: c-MYC, human, full length; see the vendor's catalogue entry; source: bought: Cusabio, CSB-EP015270HU

Test [3] concerns the target B1.

T2 sequence (P01106 16-454): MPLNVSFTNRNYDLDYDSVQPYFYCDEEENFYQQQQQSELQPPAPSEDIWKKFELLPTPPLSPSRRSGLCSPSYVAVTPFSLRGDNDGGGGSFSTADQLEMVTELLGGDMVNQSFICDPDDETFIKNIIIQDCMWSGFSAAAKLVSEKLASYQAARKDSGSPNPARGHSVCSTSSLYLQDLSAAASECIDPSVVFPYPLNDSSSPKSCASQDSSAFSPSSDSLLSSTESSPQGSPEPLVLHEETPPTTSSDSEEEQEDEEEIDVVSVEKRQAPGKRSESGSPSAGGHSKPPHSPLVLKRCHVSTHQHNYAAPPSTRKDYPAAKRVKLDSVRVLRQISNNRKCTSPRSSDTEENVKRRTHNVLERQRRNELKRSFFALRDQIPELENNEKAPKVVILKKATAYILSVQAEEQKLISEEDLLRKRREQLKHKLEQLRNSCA

As for B1, the binding result in test [1] is on record as “binds”.

B2: Lon N-terminal domain peptide (aa 1-245) (domain or fragment, E. coli, UniProt P0A9M0 1-245, looked up)
chain: MNPERSERIEIPVLPLRDVVVYPHMVIPLFVGREKSIRCLEAAMDHDKKIMLVAQKEASTDEPGVNDLFTVGTVASILQMLKLPDGTVKVLVEGLQRARISALSDNGEHFSAKAEYLESPTIDEREQEVLVRTAISQFEGYIKLNKKIPPEVLTSLNSIDDPARLADTIAAHMPLKLADKQSVLEMSDVNERLEYLMAMMESEIDLLQVEKRIRNRVKKQMEKSQREYYLNEQMKAIQKELGEMD
notes: Lon protease, E. coli, UniProt P0A9M0, N-terminal domain, aa 1-245; also called NTD; NTD peptide; source: E. coli BL21 (DE3), purified (Strep-Tactin Sepharose)
For the molecule B2, the equilibrium dissociation constant (Kd) in test [2] and in test [3] was < 1000 nM each time.
